Experiment: soluble on expression in E. coli; label from the status in PepcDB or PDB records

Soluble on expression in E. coli, not soluble:
MGSDKIHHHHHHMKRKTLPKLLYADAKGNIFDHPHLCMAGMSGSEAVLPESVELIPLPEGSRLFTIPDTPPVAWDEQQRKFVTVASVREGRRPMPVQAVSAFMAPGYVRLLLPACDYSRKKVHLPLWSYTAVGWDEERDCFVVAASRVDTNQNWNPCNYDDRKLDPLVRQRLAEMPHNRLLEQLARCAVDYHCFAAKNLFFRRWEAPLPTSPACNSRCLGCISLQPSDCCPANHERIGFVPTPEEIVELALPHLLEAPEPIVSYGQGCEGDPIMQADTVAEATRRLKAATSRGTVNFNSNGSFPDRIAMLCDAGMDSMRFSMNSVREEVYDRYYRPVGYRFAEVKESVRLAGERGLFTMINYLVSPGVSDSADEVEALLRFIGETGVKMIQMRNLSIDPDFYNKRMGATGRGIGMYRMLERVKREFPHIQYGYYNRTRENFFPAGYEKGWPIR, MGSDKIHHHHHHMKRRDFLITSAAALSFLLSGCAIGDRVVEEPLTPKSNPPRKSVVYVLKTERREEAVSKLMQNFSDFEGSTVGLKANYNSADPFPASTHPKTLSAIVDVLKEQKAEVFMAERSGMGNTSAVLKTMGILDLAREKGFTVIDLDSYDGWVLHQPEDSHWKKGYPFADIFLTVDSVIQTCCLKTHRFGGHFTMSLKNSVGMVARRWKGHDYMSELHTSPHMRKMIAEINVSYSPKIVIMDAIKGFSHGGPERGTVIEPGLMIASNDRVAIDAVGVAILRIHGTTPEVSKGSVFEQEQIARAIEIGLSSGEFEIIPANDDAEKICSEIEAVLWG, MGSDKIHHHHHHMKRSGKVYIIGAGPGEEELITLKAIRKMKECTAVLYDRLVGQGILKYLNEKCEIYYCGKEPGCHYKTQDEINEMIIKLAKEGHIVGRIKGGDPYIFGRGGEEGLSLLKENIEFEVISGVTSPVAVLNYAGIPVTHRGIARSFHVFTAKTANDDSINFSAAAKIDGTLIFLMGYRQLNDITRKLIENGMDSKMPCAVVMRGTTSLQKKVIGNLSDIKEKCDNANMTSPCIIVVGKVVGFNQQLNWYEKKPLFGRNICITRSKNQSKTMREELLDLGAEVTEVHSIEIENTASNLEEYINKISEYDYIILTSVNAVEVLFDYLASKDYDVRKVRAKFAVIGNATKEALKKRGIVPEIVSRKHNGEGLFDEIRGYLKKDDKIFIPRSENSRKYIKEQLVSLGLSVDECFIYRTVPGKLYDKAAFENADTIVFTSPSTVKNMIALFGEKNIKKKSIIAIGPITGRELGKINAEYSTCSECSVDAIIRECLNSDK, MGSDKIHHHHHHMKRVSVVILNWNGVDMLRKFIPSVMDNSVGEGIEICVADNASSDGSLEMLRSEFPVVRLIELDQNYGFAEGYNRALEQVDAEYVVLLNSDVEVTPHWLEPLLDYMDTHSGTVACQPKLLSWHNKEYFEYAGASGGFIDRYGYPFCRGRIFDVVEKDCGQYDTITEVMWVTGAALFIRLADYREVGGLDGHFFAHMEEIDLCWRLRSRGKKLVCIPQSVVYHVGGATLKKENPRKTFLNFRNNLLMLYKNLPDKELEHVLFIRGILDRVAALVFYLKKDRANARAVMQARREFEDIRYSFAASRIENMMKSTDEIIPERTHFSIVMKYYLLGKKHFSQLKLF, MGSDKIHHHHHHMKRVVITGMGIVSPFGVGKERNLEGLRETKVTIDRISSFDASNLPVQIAAEVRDFKPEEYINPKLVRRTDRFVHFALVSAKEAVEDAGINFEPYADRTATIIGSGMGGFLTLDSENNKFLSQGPSRVSPFLIPMILIDMASGVVAMEYGLKGPNFSSVSACASSLHAVALGALLIRHGYADVAVVGGTEATIAPLPITGFANMRALSRRNDDPKRASRPFDKDRDGFVMGEGGAVLILEAEEVAKSRGAKILAEIKGVGMTDDAYHFSAPDPEGRGAAEAMKLALKESSLAVEDIDYVSCHATSTPAGDEAELKAIKKVLGEHVKNVAINSSKALIGHLLGAAGASELVLAILQMQNSFVHGMPNLDNPIDEAKGTGLVGKEPVQMEIKNFIKNSFGFGGHNVSIVVGRYES, MGSDKIHHHHHHMKSSQPFIYEAHAARVVFGAGSSSQVAAEVERLGAKRALVLCTPNQQAEAERIADLLGPLSAGVYAGAVMHVPIESARDATARAREAGADCAVAVGGGSTTGLGKAIALETGMPIVAIPTTYAGSEVTPVYGLTEAGTKRTGRDPRVLPRTVIYDPALTVGLPRGLSVTSALNAIAHAAEGLYARDANPVMSLMAEEGIRALAAGIPAVFNDPADLDARSQCLYGAWLCGTVLGGVGMALHHKLCHTLGGSFNLPHAETHTIVLPHALAYNAAAVPEAMARIRRATGAGEQSAAATLFDLAQRHGAPVALRDIGMREEDLDRAADIALASPYWNPRPIEREPIRALLQAAYEGVRPD

Source: the DeepSol protein solubility set
